Assays:
Experiment in all cases: cryo-EM structure
[1] = target: major capsid protein MEL_305 (melbournevirus)
[2] = target: MEL_213b (melbournevirus)
MEL_256 (melbournevirus) = target: MEL_256 (melbournevirus)

major capsid protein MEL_305 (natural protein)
stoichiometry N [1]: 3

MEL_213b (natural protein)
stoichiometry N [2]: 2

MEL_256 (natural protein)
stoichiometry N (MEL_256 (melbournevirus)): 5

Source: article PMC13365592
